# B1: soluble CD72 (extracellular part of human CD72, amino acids 117-359, V5 and 8xHis tagged) (domain or fragment, UniProt P21854 117-359, looked up)
# chain: RYLQVSQQLQQTNRVLEVTNSSLRQQLRLKITQLGQSAEDLQGSRRELAQSQEALQVEQRAHQAAEGQLQACQADRQKTKETLQSEEQQRRALEQKLSNMENRLKPFFTCGSADTCCPSGWIMHQKSCFYISLTSKNWQESQKQCETLSSKLATFSEIYPQSHSYYFLNSLLPNGGSGNSYWTGLSSNKDWKLTDDTQRTRTYAQSSKCNKVHKTWSWWTLESESCRSSLPYICEMTAFRFPD
# Molecular target: T1, CD6 (human (endogenous in CD4+ T cells), UniProt P30203 18-668)
# T1 sequence (looked up): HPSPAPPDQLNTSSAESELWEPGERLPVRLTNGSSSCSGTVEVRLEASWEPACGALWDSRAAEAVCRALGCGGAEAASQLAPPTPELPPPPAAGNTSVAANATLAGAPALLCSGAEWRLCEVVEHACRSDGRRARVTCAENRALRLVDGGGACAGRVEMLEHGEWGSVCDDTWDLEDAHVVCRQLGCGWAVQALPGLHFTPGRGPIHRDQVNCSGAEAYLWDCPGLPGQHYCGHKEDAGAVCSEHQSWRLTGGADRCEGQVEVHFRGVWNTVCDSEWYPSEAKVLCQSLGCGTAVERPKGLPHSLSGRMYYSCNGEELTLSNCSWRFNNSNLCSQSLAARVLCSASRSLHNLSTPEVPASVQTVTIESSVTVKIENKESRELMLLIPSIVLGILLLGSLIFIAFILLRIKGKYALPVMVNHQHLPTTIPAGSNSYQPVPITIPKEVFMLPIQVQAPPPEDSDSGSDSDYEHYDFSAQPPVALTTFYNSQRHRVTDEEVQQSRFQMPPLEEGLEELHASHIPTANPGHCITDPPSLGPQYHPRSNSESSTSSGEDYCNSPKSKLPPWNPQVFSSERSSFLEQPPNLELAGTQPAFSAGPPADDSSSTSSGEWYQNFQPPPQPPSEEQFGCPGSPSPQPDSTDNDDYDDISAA
# Assay: cell-based or functional assay
binder,measurement,value
B1,"phosphorylation of SLP-76 (Ser376), phospho/total ratio by western blot, activated CD4+ T cells stimulated with 2 ug/ml sCD72 against control",~2 fold

# — PMC11254670, “Soluble CD72, is a T-cell activator probably via binding to CD6 in homeostasis and autoimmunity” (Frontiers in Immunology, 2024)
